T1: CD27 expressed on the cell surface of HT1080_CD27 cells (human, UniProt P26842 20-260)
T1 sequence (looked up): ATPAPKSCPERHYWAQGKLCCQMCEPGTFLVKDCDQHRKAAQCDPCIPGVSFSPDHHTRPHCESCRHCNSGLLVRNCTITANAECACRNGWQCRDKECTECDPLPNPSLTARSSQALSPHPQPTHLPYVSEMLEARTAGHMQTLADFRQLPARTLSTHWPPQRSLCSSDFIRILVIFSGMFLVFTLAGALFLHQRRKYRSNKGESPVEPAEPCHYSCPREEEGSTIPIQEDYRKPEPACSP

T2: CD27 protein (His-tagged, Sino Biological Inc. 10039-H08B1) (human, UniProt P26842 20-192)
T2 construct: bought protein coated on ELISA plates; also called TNFRSF7; not shown: His tag
T2 sequence (looked up): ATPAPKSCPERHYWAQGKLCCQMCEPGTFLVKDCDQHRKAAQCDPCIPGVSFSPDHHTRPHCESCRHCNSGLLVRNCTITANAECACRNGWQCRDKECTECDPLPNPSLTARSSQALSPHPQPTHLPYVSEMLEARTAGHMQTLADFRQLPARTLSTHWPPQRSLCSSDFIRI

B1: P018.S.10.A.F04 (antibody, V domains shown)
VH: QSVEESGGRLVTPGTPLTLTCTASGFYLSSHYMSWVRQAPGKGLEWIGIIYATGIASYANWAKGRFTISKTSTTVSLKMTSPTTEDTATYFCARYDSQDYYGYGNLWGPGTLVTVSS
VL: AYDMTQTPASVEVAVGGTVTIKCQASQNIYNNLAWYQQKPGQRPKLLIYRASTLASGVSSQFKGSGSGTEYTLTISGVESADAATYYCQQGYSVHDVYNTFGGGTEVVVK
notes: V regions on human Ig constant parts; also called AB27_180
B2: P018.S.01.A.H02 (antibody, V domains shown)
VH: QSVEESGGRLVTPGTPLTLTCTASGFSLSSYHMQWVRQAPGKGLEWIGIIYAGSGNTWYASWAKGRFTISKTSTTVDLKITSPTTEDTAAYFCARQPGGDASDTQLDLWGQGTLVTVSS
VL: AAVLTQTASPVSAAVGGTVTINCQSSQSVFDHNQLSWFQHKPGQSPKLLIYRASTLASGVPSRFKGSGSGTQFTLTISDVQSDDAATYYCLGGYSSSSDTVFGGGTEVVVK
B3: P018.S.09.A.C03 (antibody, V domains shown)
VH: QSVEESGGRLVTPGTPLTLTCTVSGFSLSSYGMIWVRQAPGKGLEWIGWISSNDNKYYARWAKGRFTISKTSTTVDLKMTSLTTEDTATYFCVRNGVYNTGNYFDLWGQGTLVTVSS
VL: AQVLTQTPSSVSAAVGGTVTINCQASQSLYNNKNLAWYQQKPGQPPKFLIYTASSLASGVSSRFKGSGSGTQFTLTISDVQSDDAATYYCQGEFDCDSDDCFAFGGGTEVVVK
B4: P018.S.10.A.C02 (antibody, V domains shown)
VH: QSVEESGGRLVTPGTPLTLTCTVSGIDLSNYAMSWVRQTPGKGLEWIGAIGIGGNTYYASWAKGRFTISRTSTMVDLKVASPTPEDTATYFCARHAGAGVVNWLDLWGQGTLVTVSS
VL: DVVMTQTPASVSEPVGGTVTIKCQASQSIGSNLAWYQQKPGQPPKLLIYAASDLASGVPSRFSGSGSGTEFTLTISGVQSDDAATFYCQTYGSGSFSSFNLFGGGTEVVVK
notes: V regions on human Ig constant parts; also called AB27_171
B5: P018.S.03.A.A02 (antibody, V domains shown)
VH: QSVEESGGRLVTPGTPLTLTCTVSGFSLSSYDMTWVRQAPGEGLEWIGYINTDTTTYYASWAKGRFTISRTSTTVDLEITSPTTEDTATYFCARGNDPIYIDLWGQGTLVTVSS
VL: AAVLTQTPSPVSAAVGGTVSISCQSSKSVINNNWLGWYQQKPGQPPKLLISYASTLASGVPSRFSGSGSGTQFTLTISDVQSDDAATYYCAGAYSPDSENAFGGGTEVVLK
B6: P018.S.10.A.A03 (antibody, V domains shown)
VH: QSLEESGGRLVTPGTPLTLTCTVSGIDLSSYAMGWVRQAPGKGLEWIGTISTISNTYYASWANGRFTISKTSTTVDLKMTSLTASDTATYFCARGASNTINDYFNLWGQGTLVTVSS
VL: DIVMTQTPASVSEPVGGTVTIKCQASQSVGNYLAWYQQKPGQPPKLLIYDASNLASGVSSRFKGSGFATEFILTISDLESTDAATYYCHSYVYSSGNVYNGFGGGTEVVVK
notes: V regions on human Ig constant parts; also called AB27_163
B7: P018.S.04.A.F04 (antibody, V domains shown)
VH: QSVEESGGRLVTPGTPLTLTCTVSGFSLSNYAMSWVRQAPGKGLEWIGIIYASGTTYYARWAKGRFTISRTSTTVDLKISSPTTEDTATYFCAREYDSYDYAYGSSIYAFDPWGPGTLVTVSS
VL: AYDMTQTPSSVSAAVGGTVTIKCQASESIYSNLAWYQQKPGQRPKLLIYRASTLASGVSSRFKGSGSGTQFTLSISGVESADAATYYCQQGYSSSNVDNVFGGGTEVVVK
B8: P018.S.09.A.A06 (antibody, V domains shown)
VH: QEQLKESGGGLVQPGESLTLTCTASGFSLSSYYMSWVRQAPGKGLEWIGMISTGGSAYYANWARGRFTISRTSTTVDLKVTSLTTEDTATYFCARGWRYEDLWGQGTLVTVSS
VL: AQVLTQTPSPVSAAVGSTVTINCQSSQTVYNNNYLAWYQQKPGQPPKLLIYDASNLASGVSSRFSGSGSGTQFTLTISDLESDDAATYYCQGTYYDNAWYHTFGGGTEVVVK
notes: V regions on human Ig constant parts; also called AB27_146
B9: P018.S.10.A.B03 (antibody, V domains shown)
VH: QSLEESGGRLVTPGTPLTLTCTASGFSLSSYDMGWVRQAPGKGLEWIGIISSSGSTYYASWAKGRFTISKTSSTTVDLKMTSLTTEDTATYFCARTSLDGNLWGQGTLVTVSS
VL: AFEMTQTPSSVSEPVGGTVTIKCQASQSIYNYLSWYQQKPGQPPKLLIYDASALASGVPSRFKGSGSGTDFTLTISDLESADAATYYCQQDYSVSDVDNSFGGGTEVVVK
notes: V regions on human Ig constant parts; also called AB27_168
B10: P018.S.01.A.H06 (antibody, V domains shown)
VH: QEQLKESGGRLVKPDETLTITCTASGFSLSRYDMSWVRQAPGKGLEWIGSIWSDGDTDYANWAKGRFTISKTSTTVDLKITSPTTEDTATYFCARGYTAWSLWGPGTLVTVSS
VL: ALVMTQTPSPVSAAVGGTVTISCQSSESVVGNNALSWFQQKPGQPPKLLNYQASTLASGVSSRFSGSGSGTQFTLTISGVQSDDAATYYCQGTYYSSGWYFAFGGGTEVVVK
B11: P018.S.09.A.A02 (antibody, V domains shown)
VH: QSVEESGGRLVTPGTPLTLTCTASGFSLSNFYMSWVRQAPGKGLEWIGIISTGGSAYYASWAKGRFTSSKTSTTVDLQITSPTTEDTATYFCARGSGTDGAWLYYGIDLWGPGTLVTVSS
VL: DVVMTQTPASVEAAVGGTVTIKCQASENIGHALAWYQQKPGQPPKLLIYRTSTLASGVPSRFSGSGSGTQFSLTISDLDSADAATYFCQINYGGGSGGYFAFGGGTEVVVK
notes: V regions on human Ig constant parts; also called AB27_143
B12: P018.S.08.A.G02 (antibody, V domains shown)
VH: QSVEESGGRLVTPGTPLTLTCTVSGFSLSTYAMSWVRQAPGKGLEWIGMNTRSGIIYYASWAKGRFTISKTSTTVHLKITSPTTEDTATYFCARDLYADVSGYYLGLWGPGTLVTVSS
VL: AQVLTQTPSSVSAAVGGTVTINCQASQSLYNNKNLAWYQQKPGQPPKLLIYYASTLASGVSSRFKGSGSGTQFTLTISDLESDDAATYYCQGEFICSSADCVVFGGGTAVVVK
B13: P018.S.01.A.F05 (antibody, V domains shown)
VH: QEQLEESGGDLVKPEGSLTLTCTASGFSFSSSYWICWVRQAPGKGLEWIGCIITGRGNTYYANWAKGRFTISKTSSTTVTLQMTSLTAADTAIYSCARGPGGADPVNLWGPGTLVTVSS
VL: DVVMTQTPASVSEPVGGTVTIKCQASQSIYSNLAWYQQKPGQPPKLLIYRASTLTSGVPSRFKGSGSGTQFTLTISDLESADAATYYCQCTYDGSSYVPNAFGGGTEVVVK
B14: P018.S.01.A.B04 (antibody, V domains shown)
VH: QEQLEESGGRLVTPGGTLTLTCTASGFSLSSYDMSWVRQAPGKGLEWIGYIWSDGNTDYASWAAGRFTASRASTTVDLKMTSLTTEDTATYFCARGYTGFFLWGPGTLVTVSS
VL: DVVMTQTPSSVSAAVGGTVTIKCQASQSIGSSYLSWYQQKPGQPPKLLIYKTSTLASGVPSRFKGSGSGTEFTLTISDLESDDAATYYCQCTYYGGSWRVAFGGGTEVVVK
B15: P018.S.01.A.D04 (antibody, V domains shown)
VH: B14 VH with S31N
VL: B14 VL with A13T, G17D
B16: P018.S.05.A.F05 (as anti-CD27 antibody) (antibody, V domains shown)
VH: QSVEESGGRLVTPGTPLTLTCTVSGFSLSNYYMTWVRQAPGKGLEYIGIIGSGVSTYYANWAKGRFTISKASSTTVDLKMTSPTTEDTATYFCARDMYVGNWGDWGLWGQGTLVTVSS
VL: AYDMTQTPASVEVAVGGTVTIKCQASQSISNNLNWYQQKPGQPPKLLIYSVSTLASGVPSRFKGSGSGTDYTLTISGVESVDAATYYCQQDYRIGDLDSAFGGGTEVVVK
notes: V regions on human Ig constant parts; also called AB27_92

Substitutions are numbered along the chain they refer to. Names may count otherwise.
For ELISA [abs. corr.] in this document: test concentration or dose not given here.
For Functional assay Cross-linked by F(ab′)2 fragment IL-8 in this document: test concentration or dose not given here.
For Functional assay IL-8 in this document: test concentration or dose not given here.

One experiment has as its target T1, CD27 expressed on the cell surface of …. Nature of the experiment: cell-based or functional assay.
With B1, the “EC 50 (IL-8 release, cross-linked)” value is 1.27 µg/mL.
On the same count and under the same terms, under B2 stands 1.11 µg/mL.
Same read-out and setting: under B3 stands 1.02 µg/mL.
Still for that read-out and setting: under B4 stands 0.414 µg/mL; under B5, 0.835 µg/mL.
Turning to B6, the “EC 50 (IL-8 release, cross-linked)” value is 0.513 µg/mL.
Regarding B7, the “EC 50 (IL-8 release, cross-linked)” value worked out at 1.44 µg/mL.
The same measure, in the same setting: under B8 stands 0.387 µg/mL.
Same read-out and setting: under B9 stands 1.94 µg/mL.
On the same count and under the same terms, to B10 belongs 2.35 µg/mL; to B11, 0.144 µg/mL; to B12, 1.94 µg/mL.
Regarding B13, the “EC 50 (IL-8 release, cross-linked)” value amounted to 1.32 µg/mL.
In the case of B14, the “EC 50 (IL-8 release, cross-linked)” value is 0.856 µg/mL.
Same read-out and setting: to B15 belongs 1.3 µg/mL; to B16, 0.376 µg/mL.

A further experiment has the same target. Nature of the experiment: cell-based or functional assay. This is another data set of the same source.
With B1, the “Functional assay Cross-linked by F(ab′)2 fragment IL-8” value (“Functional assay Cross-linked” below) came out at 2.32 abs. corr and the “Functional assay IL-8” value is 0.273 abs. corr.
The matching figures for B4: 2.28 abs. corr and 0.631 abs. corr.
On the same counts, the results for B6 are 2.06 abs. corr and 1.02 abs. corr.
The matching figures for B8: 2.25 abs. corr and 2.19 abs. corr.
In the case of B9, the “Functional assay Cross-linked” value amounted to 2.07 abs. corr and the “Functional assay IL-8” value was -0.032 abs. corr.
For B11, the “Functional assay Cross-linked” value came out at 2.46 abs. corr and the “Functional assay IL-8” value worked out at 0.839 abs. corr.
On the same counts, the results for B16 are 2.21 abs. corr and 0.189 abs. corr.

The next experiment addresses T2, CD27 protein (His-tagged, Sino …). Nature of the experiment: ELISA, coated His-tagged CD27. (In an ELISA, binding on a coated surface is turned into a signal by an enzyme label.)
Turning to B1, the “ELISA [abs. corr.]” value is 2.89 abs. corr.
Still for that read-out and setting: to B4 belongs 2.9 abs. corr; to B6, 2.81 abs. corr.
Same read-out and setting: to B8 belongs 3.09 abs. corr.
Same read-out and setting: under B9 stands 2.24 abs. corr; under B11, 2.95 abs. corr.
Regarding B16, the “ELISA [abs. corr.]” value stood at 2.31 abs. corr.

A further experiment concerns the target T1, CD27 expressed on the cell surface of …. Nature of the experiment: HT1080_CD27 cells, imaging. Also: test concentration or dose not given here.
In the case of B1, the “Cellular binding assay [RFU]” value amounted to 133 RFU.
The same measure, in the same setting: under B4 stands 238 RFU; under B6, 198 RFU; under B8, 113 RFU.
For B9, the “Cellular binding assay [RFU]” value amounted to 19 RFU.
On to B11, for which the “Cellular binding assay [RFU]” value is 155 RFU.
As for B16, the “Cellular binding assay [RFU]” value stood at 11 RFU.

(Values after patent US20210253725A1 (BIONTECH, published 2021).)
